B1: SH2 domain-containing protein 1A (Homo sapiens), O60880-1 (parent)
chain: MDAVAVYHGKISRETGEKLLLATGLDGSYLLRDSESVPGVYCLCVLYHGYIYTYRVSQTETGSWSAETAPGVHKRYFRKIKNLISAFQKPDQGIVIPLQYPVEKKSSARSTQGTTGIREDPDVCLKAP
B2: Rho guanine nucleotide exchange factor 7 (Homo sapiens), Q14155 (parent)
chain: MNSAEQTVTWLITLGVLESPKKTISDPEGFLQASLKDGVVLCRLLERLLPGTIEKVYPEPRSESECLSNIREFLRGCGASLRLELLFPPSQPPQHLVTTILLSASTFDANDLYQGQNFNKVLSSLVTLNKVTADIGLGSDSVCARPSSHRIKSFDSLGSQSLHTRTSKLFQGQYRSLDMTDNSNNQLVVRAKFNFQQTNEDELSFSKGDVIHVTRVEEGGWWEGTLNGRTGWFPSNYVREVKASEKPVSPKSGTLKSPPKGFDTTAINKSYYNVVLQNILETENEYSKELQTVLSTYLRPLQTSEKLSSANISYLMGNLEEICSFQQMLVQSLEECTKLPEAQQRVGGCFLNLMPQMKTLYLTYCANHPSAVNVLTEHSEELGEFMETKGASSPGILVLTTGLSKPFMRLDKYPTLLKELERHMEDYHTDRQDIQKSMAAFKNLSAQCQEVRKRKELELQILTEAIRNWEGDDIKTLGNVTYMSQVLIQCAGSEEKNERYLLLFPNVLLMLSASPRMSGFIYQGKLPTTGMTITKLEDSENHRNAFEISGSMIERILVSCNNQQDLQEWVEHLQKQTKVTSVGNPTIKPHSVPSHTLPSHPVTPSSKHADSKPAPLTPAYHTLPHPSHHGTPHTTINWGPLEPPKTPKPWSLSCLRPAPPLRPSAALCYKEDLSKSPKTMKKLLPKRKPERKPSDEEFASRKSTAALEEDAQILKVIEAYCTSAKTRQTLNSTWQGTDLMHNHVLADDDQPSLDSLGRRSSLSRLEPSDLSEDSDYDSIWTAHSYRMGSTSRKSCCSYISHQN
partner: B1 chain

Variants of: B1
Details: with arhg7_human ARHGEF7, Q14155

Variant | effect of a mutation on the interaction
R78A | disrupting interaction strength

Variants of: B2
Details: with SH2D1A

Variant | effect of a mutation on the interaction
W221P;W222G | disrupting interaction strength

Reference: IntAct's records for PubMed 16983070
